This note sets out measurements from patent publication US20080274100A1.

What all share (test): peptide ELISA, 0.5 µg/well scFv
Background: ELISA stands for enzyme-linked immunosorbent assay.

The target in assay [1] is GPIb (residues 268-285) derived peptide, non-sulfated.
For assay [2], the target named is GPIb (residues 268-285) derived peptide, sulfated at 3rd tyrosine position.
Assay [3] addresses PSGL-1 (residues 42-58) derived peptide, sulfated at 3rd tyrosine position.
Assay [4] has as its target CCR5 (residues 1-18) derived peptide, sulfated at 2nd tyrosine position.
For assay [5], the target named is PSGL-1 (residues 42-58) derived peptide, sulfated at 2nd tyrosine position.
Assay [6] addresses CCR5 (residues 1-18) derived peptide, sulfated at 3rd tyrosine position.
The target of assay [7] is GPIb (residues 268-285) derived peptide, sulfated at 1st tyrosine position.
For assay [8], the target named is PSGL-1 (residues 42-58) derived peptide, sulfated at 1st tyrosine position.
Assay [9] has as its target PSGL-1 (residues 42-58) derived peptide, non-sulfated.
For assay [10], the target named is CCR5 (residues 1-18) derived peptide, non-sulfated.
The target of assay [11] is CCR5 (residues 1-18) derived peptide, sulfated at 1st tyrosine position.

N06 scFv (negative control): the ELISA read-out at 450 nm came out at 0.07 OD 450 nm in [1]; 0.07 OD 450 nm in assay [2]; 0.06 OD 450 nm in [3]; 0.06 OD 450 nm in [4]; 0.06 OD 450 nm in [5]; 0.06 OD 450 nm in [6]. In addition, the ELISA read-out at 450 nm was 0.07 OD 450 nm in [7]; 0.06 OD 450 nm in assay [8]; 0.06 OD 450 nm in assay [9]; 0.06 OD 450 nm in assay [10]; 0.06 OD 450 nm in assay [11].
